Test results as given in patent publication US20140193378A1 (UNIVERSITY OF MIAMI, published 2014).
Non-standard residues stand in square brackets, D forms with d. *: point of attachment. Desaminotyrosyl = O=C(CCc1ccc(O)cc1)*; hArg = N=C(N)NCCCC[C@H](N)C(=O)O; Nle = CCCC[C@H](N)C(=O)O; Orn = NCCC[C@H](N)C(=O)O; Abu = CC[C@H](N)C(=O)O; Aoc = NCCCCCCCC(=O)O

T1: human GHRH receptor (human pituitary membrane homogenates) (human), Q02643
T1 chain: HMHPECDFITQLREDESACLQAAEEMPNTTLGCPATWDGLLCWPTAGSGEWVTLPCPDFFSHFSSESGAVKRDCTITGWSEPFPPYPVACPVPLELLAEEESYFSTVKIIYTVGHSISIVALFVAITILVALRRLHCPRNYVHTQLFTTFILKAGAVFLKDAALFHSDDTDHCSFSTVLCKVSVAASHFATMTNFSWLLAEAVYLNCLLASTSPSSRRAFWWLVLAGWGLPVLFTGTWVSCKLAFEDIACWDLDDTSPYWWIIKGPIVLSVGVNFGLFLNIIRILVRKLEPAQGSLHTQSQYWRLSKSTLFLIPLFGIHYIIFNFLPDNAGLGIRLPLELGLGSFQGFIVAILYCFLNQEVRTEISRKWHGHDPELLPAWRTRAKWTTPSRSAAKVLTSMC

T2: human GHRH receptor (human pituitary membrane homogenates) (human, UniProt Q02643 23-423)
T2 construct: whole, on cells; Native receptor in human pituitary membrane homogenates, not on intact cells; also called hGHRH receptor
T2 sequence (looked up): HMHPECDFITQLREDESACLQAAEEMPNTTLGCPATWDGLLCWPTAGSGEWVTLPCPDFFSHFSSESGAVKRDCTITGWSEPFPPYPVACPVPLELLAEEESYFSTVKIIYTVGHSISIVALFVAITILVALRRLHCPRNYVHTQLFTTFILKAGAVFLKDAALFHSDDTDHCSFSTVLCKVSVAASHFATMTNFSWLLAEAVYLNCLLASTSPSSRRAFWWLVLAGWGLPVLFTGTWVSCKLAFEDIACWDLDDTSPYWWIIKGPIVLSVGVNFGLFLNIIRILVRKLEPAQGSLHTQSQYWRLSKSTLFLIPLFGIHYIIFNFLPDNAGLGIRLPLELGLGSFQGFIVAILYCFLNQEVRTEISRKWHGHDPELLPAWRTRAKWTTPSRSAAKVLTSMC


Key:
[1] = molecular target: T1, human GHRH receptor (human pituitary …); test: radioligand competition vs 125I-JV-1-42 (0.2 nM), human pituitary membranes
[2] = molecular target: T2, human GHRH receptor (human pituitary …); test: radioligand competition vs [His1,125I-Tyr10,Nle27]hGHRH(1-32)NH2 (0.2 nM), human pituitary membranes
From the text: Normal human pituitaries were purchased from the National Hormone and Peptide Program (A. F. Parlow, Los Angeles, County Harbor—UCLA Medical Center, Torrance, Calif.).

Row | IC50 [1] [nM] | Relative affinity (Binding potency) vs JI-38 [1] [fold] | Relative affinity (Binding potency) vs GHRH [2] [fold] | Relative affinity (Binding potency) vs JI-38 [2] [fold] | Binder
1 | 2.45 | 1.78 |  |  | [Desaminotyrosyl]ADAIFTQSYH[Orn]VL[Abu]QLSAH[Orn]LLQDI[Nle]DR-NHMe (SMILES CCCC[C@H](NC(=O)[C@@H](NC(=O)[C@H](CC(=O)O)NC(=O)[C@H](CCC(N)=O)NC(=O)[C@H](CC(C)C)NC(=O)[C@H](CC(C)C)NC(=O)[C@H](CCCN)NC(=O)[C@H](Cc1c[nH]cn1)NC(=O)[C@H](C)NC(=O)[C@H](CO)NC(=O)[C@H](CC(C)C)NC(=O)[C@H](CCC(N)=O)NC(=O)[C@H](CC)NC(=O)[C@H](CC(C)C)NC(=O)[C@@H](NC(=O)[C@H](CCCN)NC(=O)[C@H](Cc1c[nH]cn1)NC(=O)[C@H](Cc1ccc(O)cc1)NC(=O)[C@H](CO)NC(=O)[C@H](CCC(N)=O)NC(=O)[C@@H](NC(=O)[C@H](Cc1ccccc1)NC(=O)[C@@H](NC(=O)[C@H](C)NC(=O)[C@H](CC(=O)O)NC(=O)[C@H](C)NC(=O)CCc1ccc(O)cc1)[C@@H](C)CC)[C@@H](C)O)C(C)C)[C@@H](C)CC)C(=O)N[C@@H](CC(=O)O)C(=O)N[C@@H](CCCNC(=N)N)C(=O)NC) [P-27413 [Dat^1, Gln^8, His^11, Orn^12, Abu^15, His^20, Orn^21, Nle^27, Asp^28]hGHRH(1-29)NH-CH3]
2 |  |  | 42.3 | 13.9 | [Desaminotyrosyl][dA]DAIFTNSYR[Orn]VL[Abu]QLSAR[Orn]LLQDI[Nle]DR[hArg]-NH2 (SMILES CCCC[C@H](NC(=O)[C@@H](NC(=O)[C@H](CC(=O)O)NC(=O)[C@H](CCC(N)=O)NC(=O)[C@H](CC(C)C)NC(=O)[C@H](CC(C)C)NC(=O)[C@H](CCCN)NC(=O)[C@H](CCCNC(=N)N)NC(=O)[C@H](C)NC(=O)[C@H](CO)NC(=O)[C@H](CC(C)C)NC(=O)[C@H](CCC(N)=O)NC(=O)[C@H](CC)NC(=O)[C@H](CC(C)C)NC(=O)[C@@H](NC(=O)[C@H](CCCN)NC(=O)[C@H](CCCNC(=N)N)NC(=O)[C@H](Cc1ccc(O)cc1)NC(=O)[C@H](CO)NC(=O)[C@H](CC(N)=O)NC(=O)[C@@H](NC(=O)[C@H](Cc1ccccc1)NC(=O)[C@@H](NC(=O)[C@H](C)NC(=O)[C@H](CC(=O)O)NC(=O)[C@@H](C)NC(=O)CCc1ccc(O)cc1)[C@@H](C)CC)[C@@H](C)O)C(C)C)[C@@H](C)CC)C(=O)N[C@@H](CC(=O)O)C(=O)N[C@@H](CCCNC(=N)N)C(=O)N[C@@H](CCCCNC(=N)N)C(N)=O, also called Peptide 23252) [P-23252 [Dat^1-D-Ala^2, Orn^12, Abu^15, Orn^21, Nle^27, Asp^28, Har^30]hGHRH(1-30)NH2]
3 |  |  | 74 | 24.4 | [Desaminotyrosyl][dA]DAIFTQSYR[Orn]VL[Abu]QLSAR[Orn]LLQDI[Nle]DR[Aoc]-NH2 (SMILES CCCC[C@H](NC(=O)[C@@H](NC(=O)[C@H](CC(=O)O)NC(=O)[C@H](CCC(N)=O)NC(=O)[C@H](CC(C)C)NC(=O)[C@H](CC(C)C)NC(=O)[C@H](CCCN)NC(=O)[C@H](CCCNC(=N)N)NC(=O)[C@H](C)NC(=O)[C@H](CO)NC(=O)[C@H](CC(C)C)NC(=O)[C@H](CCC(N)=O)NC(=O)[C@H](CC)NC(=O)[C@H](CC(C)C)NC(=O)[C@@H](NC(=O)[C@H](CCCN)NC(=O)[C@H](CCCNC(=N)N)NC(=O)[C@H](Cc1ccc(O)cc1)NC(=O)[C@H](CO)NC(=O)[C@H](CCC(N)=O)NC(=O)[C@@H](NC(=O)[C@H](Cc1ccccc1)NC(=O)[C@@H](NC(=O)[C@H](C)NC(=O)[C@H](CC(=O)O)NC(=O)[C@@H](C)NC(=O)CCc1ccc(O)cc1)[C@@H](C)CC)[C@@H](C)O)C(C)C)[C@@H](C)CC)C(=O)N[C@@H](CC(=O)O)C(=O)N[C@@H](CCCNC(=N)N)C(=O)NCCCCCCCC(N)=O, also called Peptide 21304) [P-21304 [Dat^1, D-Ala^2, Gln^8, Orn^12, Abu^15, Orn^21, Nle^27, Asp^28, Amc^30]hGHRH(1-30)NH2]
